We go through three molecules from patent US20100015637A1 (AbbVie / Abbott, published 2010).

Test [1] deals with human PlGF-1 comprising amino acids 1-137 produced in human embryonic kidney cells (human) (UniProt P49763). Nature of the test: Format 2 …, capture MAb264, detection Pb264; sFlt-1 9200 pmol/L (ratio 300).
The target is the same in test [2]. Description: Format 1 …, capture 2-826-335, detection 1-255-713; sFlt-1 1533 pmol/L (ratio 50).
Test [3] shares this target. Nature of the test: Format 2 …, capture MAb264, detection Pb264; sFlt-1 307 pmol/L (ratio 10).
Test [4] shares this target. Nature of the test: Format 3 Quantikine ELISA, capture MAb264, detection Pb264; sFlt-1 9200 pmol/L (ratio 300). (In general: In an ELISA, binding on a coated surface is turned into a signal by an enzyme label.)
Test [5] concerns the target T1, CHO human PlGF-1 fragment (comprising amino acids 17-131; ATCC PTA-8540) (human, UniProt P49763 35-221).
T1 sequence: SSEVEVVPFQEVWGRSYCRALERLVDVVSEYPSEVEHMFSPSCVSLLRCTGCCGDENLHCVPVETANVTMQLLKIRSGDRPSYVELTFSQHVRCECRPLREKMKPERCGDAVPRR
Nature of the test: … sandwich, capture MAb255, detection pAb264; antigen 750 pg/mL.

In test [6] the target is T2, CHO human PlGF-1 comprising amino acids 1-137 (human PlGF-1-His (1-131), CHO 6305) (human, UniProt P49763 19-221, N-glycans at N21 (completely glycosylated) and N89 (partially glycosylated)).
T2 construct: Mature human PlGF-1 with 6xHis tag (137 amino acids); also called CHO (1-137)
T2 sequence: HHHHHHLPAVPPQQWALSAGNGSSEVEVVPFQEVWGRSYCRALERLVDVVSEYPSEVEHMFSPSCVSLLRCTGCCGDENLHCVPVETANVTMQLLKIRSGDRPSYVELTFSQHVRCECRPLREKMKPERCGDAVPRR
The test is described as above.

The target in test [7] is T3, human PlGF-1 fragment (comprising amino acids 17-131) produced in human embryonic kidney cells (human, UniProt P49763 35-221).
T3 sequence: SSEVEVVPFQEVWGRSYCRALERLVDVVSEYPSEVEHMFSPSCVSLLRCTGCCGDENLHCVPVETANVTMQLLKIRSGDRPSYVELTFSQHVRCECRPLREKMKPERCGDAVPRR
The description is as above.

Test [8] deals with T4, human PlGF-1 comprising amino acids 1-137 produced in human embryonic kidney cells (human, UniProt P49763 19-221).
T4 construct: Mature human PlGF-1 with 6xHis tag; also called HEK (1-137); full length HEK human PlGF-1 (1-137)
T4 sequence: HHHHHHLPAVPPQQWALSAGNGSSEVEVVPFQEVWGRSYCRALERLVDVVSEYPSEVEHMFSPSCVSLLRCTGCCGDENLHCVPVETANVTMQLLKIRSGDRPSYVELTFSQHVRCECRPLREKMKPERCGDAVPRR
The description is as above.

The target of test [9] is T1, CHO human PlGF-1 fragment (comprising …). Nature of the test: … sandwich, capture MAb255, detection pAb264; antigen 15 pg/mL.
In test [10] the target is T2, CHO human PlGF-1 comprising amino acids …. Described as above.
Test [11] deals with T3, human PlGF-1 fragment (comprising amino …). Described as above.
In test [12] the target is T4, human PlGF-1 comprising amino acids …. The description is as above.
In test [13] the target is T1, CHO human PlGF-1 fragment (comprising …). Nature of the test: … sandwich, capture MAb255, detection MAb826; antigen 15 pg/mL. A digest of the protocol: (§1)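 Human PlGF-1 antigen preparations, including CHO cell-expressed recombinant forms, spanned 0 to 1500 pg/mL in a sandwich immunoassay. A monoclonal anti-human PlGF-1 antibody, immobilized on magnetic microparticles through passive coating and EDAC cross-linking, captured the antigen, and an acridinium ester-labeled monoclonal anti-human PlGF-1 antibody detected it. Chemiluminescent relative light units (RLU) were recorded for every antigen level.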

For test [14], the target named is T2, CHO human PlGF-1 comprising amino acids …. The description is as above. A digest of the protocol:
as §1

For test [15], the target named is T3, human PlGF-1 fragment (comprising amino …). Described as above. A digest of the protocol:
as §1

Test [16] concerns the target T4, human PlGF-1 comprising amino acids …. The test is described as above. A digest of the protocol:
as §1

In test [17] the target is recombinant human PlGF-1 (comprising amino acids 1-131) expressed in E. coli (R&D Systems) (human) (UniProt P49763). Nature of the test: … sandwich, capture MAb826, detection pAb264; antigen 0 pg/mL (blank).
Test [18] has the same target. Nature of the test: … sandwich, capture MAb826, detection pAb264; antigen 15 pg/mL.

For the molecule “native sFlt-1, isolated from human placental tissue (from UniProt P17948 27-687) (receptor)”, the % Inhibition (usually how much of the control response was suppressed) in test [1] was 97.5%; in [2], 92.5%; in [3], 81.8%; in test [4], 82.2%. Further, the PlGF-1 Measured in test [1] amounted to 20 pg/mL; in test [2] it was 76.6 pg/mL; in test [3], 143 pg/mL; in test [4], 154 pg/mL.

B1: monoclonal antibody 1-255-713 (produced by murine hybridoma cell line 1-255-713, ATCC PTA-8536) (antibody, mouse IgG2a, V domains shown)
VH: QVHLQQSGAELMKPGASVKISCKATGYTFSSYWIEWVKQRPGHGLEWIGEILPGSVSNNFNEKFKDKATLTADPSSNTAYIQVSSLTSEDSAVYYCARSTGFYYGGNYFDHWGQGTTLAVSS
VL: DVVMTQTPLSLPVSPGDQASISCRSSQSLVHSNGHTYLHWYLQKPGQSPKLLIYKVSNRFSGVPDRVSGSGSGTDFTLKISRVEAEDLGVYFCSQSTHVPPTFGGGTKLEIKR
notes: also called MAb255
Consider B1, for which the RLU in [5] worked out at 713000 RLU; in test [6], 599000 RLU; in test [7], 908000 RLU; in test [8], 1.31e+06 RLU; in test [9], 28700 RLU; in test [10] it was 26400 RLU. Also, the RLU worked out at 32900 RLU in test [11]; 46700 RLU in test [12]; 13300 RLU in test [13]; 14500 RLU in test [14]; 17200 RLU in test [15]; 26700 RLU in test [16].

B2: monoclonal antibody 2-826-335 (produced by murine hybridoma cell line 2-826-335, ATCC PTA-8539) (antibody, mouse IgG1, V domains shown)
VH: QVQLKQSGPGLVQPSQSLSITCTVSGFSLTTYGIHWVRQSPGKGLEWLGVMWSGGDTDYDAAFISRLSISKDNSKSQVFFKMNSLQANDTGIYYCARYRFYGMDYWGQGTSVTVSS
VL: AIQMTQSSSSFSVSLGDRVTITCKASEDIYNRFAWYQQKPGNAPRLLISGAASLEAGVPSRFSGSGSGQDYTLSITSLQTEDVATYYCQQYWSTPWTFGGGTKLEIKR
notes: also called MAb826
For B2, the values for the RLU in test [17] and in test [18] were 6410 RLU and 19600 RLU, respectively.
